From PMC5562914, “Activation of an anti-bacterial toxin by the biosynthetic enzyme CysK: mechanism of binding, interaction specificity and competition with cysteine synthase” (Scientific Reports, 2017)
“And” between values parts separate entries of the source, which are not always exact repeats. Identical values can stand only once.

Tests used:
[1] = target: CysK from Haemophilus influenzae, His6 tag removed with thrombin (Haemophilus influenzae) (UniProt P45040); test: other fluorescence titration; PLP fluorescence emission at 500 nm; HiCysK (300 nM) or NlCysK (860 nM) titrated with CdiA-CT; read after 20 min; binding isotherm (Eq. 1)
[2] = target: CysK from Neisseria lactamica ATCC 23970, His6-tagged (Neisseria lactamica ATCC 23970); test: as above
[3] = target: T1, E. coli CysK (EcCysK), O-acetyl-L-Ser sulfhydrylase (E. coli, UniProt P0ABK5 1-323, pyridoxal 5'-phosphate (PLP) cofactor); test: other fluorescence titration; PLP fluorescence (excitation 412 nm, emission 500 nm); 1 uM EcCysK titrated with CdiA-CT to saturation (stoichiometric titration); 20 C; settings: both partners purified
T1 construct: CysK of E. coli; the E. coli cysK gene was amplified and ligated to pCH10068 (pSH21::trxA-TEV-cysK) for the purification of untagged EcCysK; not shown: TrxA, N-terminal, cleaved
T1 sequence (looked up): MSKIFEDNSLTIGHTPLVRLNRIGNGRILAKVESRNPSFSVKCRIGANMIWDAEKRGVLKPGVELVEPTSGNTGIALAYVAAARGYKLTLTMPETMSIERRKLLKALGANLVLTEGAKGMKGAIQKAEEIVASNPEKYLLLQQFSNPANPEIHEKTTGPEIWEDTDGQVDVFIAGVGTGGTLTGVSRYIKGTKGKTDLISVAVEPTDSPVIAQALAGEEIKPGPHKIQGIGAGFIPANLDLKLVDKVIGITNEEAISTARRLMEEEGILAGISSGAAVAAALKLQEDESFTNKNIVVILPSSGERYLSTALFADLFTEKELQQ

[4] = target: T1, E. coli CysK (EcCysK), O-acetyl-L-Ser …; test: other fluorescence titration; PLP fluorescence emission at 500 nm; 80 nM EcCysK titrated with CdiA-CT; data read after 20 min; quadratic tight-binding equation (Eq. 2); 20 C; settings: both partners purified
[5] = target: T1, E. coli CysK (EcCysK), O-acetyl-L-Ser …; test: inhibition of enzyme activity (sulfhydrylase); 6 nM EcCysK titrated with CdiA-CT; buffer A with 2 mM O-acetyl-L-Ser, 0.6 mM Na2S, 60 nM BSA; Morrison equation gives an apparent IC50, converted to Ki (Eq. 4); settings: both partners purified
[6] = target: T1, E. coli CysK (EcCysK), O-acetyl-L-Ser …; test: inhibition of enzyme activity (sulfhydrylase); as a3 (6 nM EcCysK titrated with CdiA-CT) in the presence of 2.4 uM CdiI; settings: both partners purified
[7] = target: T2, CdiA-CT toxin domain from uropathogenic Escherichia coli 536, Q0T963; test: stopped-flow fluorescence; as a5, CysK concentration varied, 5 C; settings: other: stopped-flow fluorescence
T2 chain: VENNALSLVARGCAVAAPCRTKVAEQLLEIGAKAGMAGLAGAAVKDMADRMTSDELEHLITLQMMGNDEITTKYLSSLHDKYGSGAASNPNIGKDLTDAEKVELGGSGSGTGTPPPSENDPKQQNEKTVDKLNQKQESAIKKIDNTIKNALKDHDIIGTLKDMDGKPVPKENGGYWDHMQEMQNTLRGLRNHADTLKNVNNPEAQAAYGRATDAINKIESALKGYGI

[8] = target: T2, CdiA-CT toxin domain from uropathogenic …; test: stopped-flow fluorescence; as a5, CysK concentration varied, 37 C; settings: other: stopped-flow fluorescence
[9] = target: T2, CdiA-CT toxin domain from uropathogenic …; test: stopped-flow fluorescence; PLP fluorescence, excitation 412 nm; buffer A; pseudo-first order, 200 nM EcCysK or 270 nM CdiA-CT fixed and the partner varied; 20 C; slope of kobs against concentration; settings: other: stopped-flow fluorescence
[10] = target: the molecule itself; test: SEC; Ultrogel AcA44 column, 0.2 mL/min, buffer A

**Q.** With “CdiA-CT toxin domain from uropathogenic Escherichia coli 536 (from UniProt Q0T963 3016-3242) (domain or fragment)” as the molecule, how does the Kd [1] read?
**A.** 3300 nM

**Q.** What about the Kd [2] of the same molecule?
**A.** 6400 nM

B1: CdiA-CT toxin domain from uropathogenic Escherichia coli 536 (domain or fragment)
chain: T2 chain
notes: C-terminal toxin domain (CdiA-CT) of CdiA, uropathogenic E. coli 536
**Q.** What does the source list for B1?
**A.** stoichiometry N [3]: 1.1 CdiA-CT:EcCysK; Kd [4]: 10 ± 11 nM; IC50 [5]: 15.4 ± 0.6 nM; Ki [5]: 11 ± 0.4 nM

B2: CdiA-CT in the presence of excess CdiI immunity protein (CdiA-CT:CdiI) (complex)
chain 1: T2 chain
chain 2: MITLRKLIGNINMTKEPEQQSPLELWFERIIDVPLEKLTVEDLCRAIRQNLCIDQLMPRVLEVLTKEPLAGEYYDGELIAALSTIKGEDLKDQKSTFTQIRQLINQLEPSDINDDLRKDILKINQIIV
**Q.** B2 was tested. Which Ki [6] did it give?
**A.** 6.4 ± 0.5 nM

B3: E. coli CysK (EcCysK), O-acetyl-L-Ser sulfhydrylase (protein)
chain: T1 sequence (looked up)
**Q.** Which “second-order rate constant k3/Kd (slope of kobs against CysK concentration, 5 °C)” value [7] does the source give for B3 here?
**A.** 0.005 ± 0.0003 µM^−1·s^−1 (5 °C)

**Q.** What about the “second-order rate constant k3/Kd (slope of kobs against CysK concentration, 37 °C)” value [8] of the same molecule?
**A.** 0.099 ± 0.019 µM^−1·s^−1 (37 °C)

**Q.** And the “second-order rate constant k3/Kd (slope of kobs against protein concentration)” value [9]?
**A.** 19000 ± 7000 M⁻¹ s⁻¹ and 17000 ± 7000 M⁻¹ s⁻¹

B4: E. coli CysE (EcCysE), serine O-acetyltransferase (enzyme, UniProt P0A9D4 1-273, looked up)
chain: MSCEELEIVWNNIKAEARTLADCEPMLASFYHATLLKHENLGSALSYMLANKLSSPIMPAIAIREVVEEAYAADPEMIASAACDIQAVRTRDPAVDKYSTPLLYLKGFHALQAYRIGHWLWNQGRRALAIFLQNQVSVTFQVDIHPAAKIGRGIMLDHATGIVVGETAVIENDVSILQSVTLGGTGKSGGDRHPKIREGVMIGAGAKILGNIEVGRGAKIGAGSVVLQPVPPHTTAAGVPARIVGKPDSDKPSMDMDQHFNGINHTFEYGDGI
notes: CysE of E. coli; cysE amplified with primers CH3642/CDI235 (the fragment that also gives 'native EcCysE'); not shown: His6-thioredoxin (His6-TrxA), N-terminal, cleaved
**Q.** For B4, which “stoichiometry N” value [10] is on record?
**A.** 6
